This is an account of results in IntAct's records for PubMed 9045636.

B1: Proto-oncogene tyrosine-protein kinase LCK (Mus musculus), P06240 (parent)
chain: MGCVCSSNPEDDWMENIDVCENCHYPIVPLDSKISLPIRNGSEVRDPLVTYEGSLPPASPLQDNLVIALHSYEPSHDGDLGFEKGEQLRILEQSGEWWKAQSLTTGQEGFIPFNFVAKANSLEPEPWFFKNLSRKDAERQLLAPGNTHGSFLIRESESTAGSFSLSVRDFDQNQGEVVKHYKIRNLDNGGFYISPRITFPGLHDLVRHYTNASDGLCTKLSRPCQTQKPQKPWWEDEWEVPRETLKLVERLGAGQFGEVWMGYYNGHTKVAVKSLKQGSMSPDAFLAEANLMKQLQHPRLVRLYAVVTQEPIYIITEYMENGSLVDFLKTPSGIKLNVNKLLDMAAQIAEGMAFIEEQNYIHRDLRAANILVSDTLSCKIADFGLARLIEDNEYTAREGAKFPIKWTAPEAINYGTFTIKSDVWSFGILLTEIVTHGRIPYPGMTNPEVIQNLERGYRMVRPDNCPEELYHLMMLCWKERPEDRPTFDYLRSVLDDFFTATEGQYQPQP

In the first assay the parent is B1. The note with it: with khdr1_human KHDRBS1, Q07666.
khdr1_human KHDRBS1, Q07666, sequence (Q07666 whole entry): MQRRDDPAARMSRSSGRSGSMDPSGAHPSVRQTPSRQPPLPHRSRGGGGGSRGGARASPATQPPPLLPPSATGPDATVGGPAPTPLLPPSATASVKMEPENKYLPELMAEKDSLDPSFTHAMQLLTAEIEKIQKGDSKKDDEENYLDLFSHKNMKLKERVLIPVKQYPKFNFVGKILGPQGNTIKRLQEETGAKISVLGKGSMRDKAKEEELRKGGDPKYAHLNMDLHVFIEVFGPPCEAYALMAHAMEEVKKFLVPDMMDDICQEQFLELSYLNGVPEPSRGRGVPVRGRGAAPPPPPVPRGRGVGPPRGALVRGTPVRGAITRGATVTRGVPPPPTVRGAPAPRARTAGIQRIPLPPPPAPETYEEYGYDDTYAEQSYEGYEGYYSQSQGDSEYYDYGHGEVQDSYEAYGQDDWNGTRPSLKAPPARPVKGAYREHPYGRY
Turning to R154K, the “effect of a mutation on the interaction” value is “decreasing interaction”.

Another assay covers variants of B1. The note with it: with khdr1_human KHDRBS1, Q07666. The source holds these as a separate data set.
On to P112K, for which the “effect of a mutation on the interaction” value is reported as “decreasing interaction”.
